Laboratory results from the supplement of paper PMC5998384.

Legend:
HeLa Kyoto [1] = test: solubility in G1/S (NP-40 vs SDS abundance) (log2 ratio); higher = more soluble; details: cell cycle stage: G1/S
HeLa Kyoto [2] = test: solubility change mitosis vs G1/S (difference of NP-40 vs SDS log2 ratios) (log2 ratio difference); higher = more soluble in mitosis
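Wherever solubility change mitosis vs G1/S (difference of NP-40 vs SDS log2 ratios) is given: synchronized HeLa Kyoto cells (double thymidine block for G1/S, nocodazole release for mitosis), protein amounts in NP-40 versus SDS lysates quantified by mass spectrometry, three biological replicates.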
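Wherever solubility in G1/S (NP-40 vs SDS abundance) is given: HeLa Kyoto cells arrested at G1/S by double thymidine block, proteins quantified by TMT10plex mass spectrometry in mild NP-40 versus SDS extracts, three biological replicates.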

Sequence of KCT2 (chain, as listed by the source): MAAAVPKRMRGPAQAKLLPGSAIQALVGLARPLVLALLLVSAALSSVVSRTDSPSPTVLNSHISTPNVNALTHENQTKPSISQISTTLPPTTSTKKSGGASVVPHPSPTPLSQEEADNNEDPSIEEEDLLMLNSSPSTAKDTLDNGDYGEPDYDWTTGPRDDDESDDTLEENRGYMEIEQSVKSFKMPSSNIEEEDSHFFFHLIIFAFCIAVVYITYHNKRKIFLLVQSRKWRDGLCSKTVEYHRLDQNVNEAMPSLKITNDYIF
Sequence of IFT140 (chain, as listed by the source): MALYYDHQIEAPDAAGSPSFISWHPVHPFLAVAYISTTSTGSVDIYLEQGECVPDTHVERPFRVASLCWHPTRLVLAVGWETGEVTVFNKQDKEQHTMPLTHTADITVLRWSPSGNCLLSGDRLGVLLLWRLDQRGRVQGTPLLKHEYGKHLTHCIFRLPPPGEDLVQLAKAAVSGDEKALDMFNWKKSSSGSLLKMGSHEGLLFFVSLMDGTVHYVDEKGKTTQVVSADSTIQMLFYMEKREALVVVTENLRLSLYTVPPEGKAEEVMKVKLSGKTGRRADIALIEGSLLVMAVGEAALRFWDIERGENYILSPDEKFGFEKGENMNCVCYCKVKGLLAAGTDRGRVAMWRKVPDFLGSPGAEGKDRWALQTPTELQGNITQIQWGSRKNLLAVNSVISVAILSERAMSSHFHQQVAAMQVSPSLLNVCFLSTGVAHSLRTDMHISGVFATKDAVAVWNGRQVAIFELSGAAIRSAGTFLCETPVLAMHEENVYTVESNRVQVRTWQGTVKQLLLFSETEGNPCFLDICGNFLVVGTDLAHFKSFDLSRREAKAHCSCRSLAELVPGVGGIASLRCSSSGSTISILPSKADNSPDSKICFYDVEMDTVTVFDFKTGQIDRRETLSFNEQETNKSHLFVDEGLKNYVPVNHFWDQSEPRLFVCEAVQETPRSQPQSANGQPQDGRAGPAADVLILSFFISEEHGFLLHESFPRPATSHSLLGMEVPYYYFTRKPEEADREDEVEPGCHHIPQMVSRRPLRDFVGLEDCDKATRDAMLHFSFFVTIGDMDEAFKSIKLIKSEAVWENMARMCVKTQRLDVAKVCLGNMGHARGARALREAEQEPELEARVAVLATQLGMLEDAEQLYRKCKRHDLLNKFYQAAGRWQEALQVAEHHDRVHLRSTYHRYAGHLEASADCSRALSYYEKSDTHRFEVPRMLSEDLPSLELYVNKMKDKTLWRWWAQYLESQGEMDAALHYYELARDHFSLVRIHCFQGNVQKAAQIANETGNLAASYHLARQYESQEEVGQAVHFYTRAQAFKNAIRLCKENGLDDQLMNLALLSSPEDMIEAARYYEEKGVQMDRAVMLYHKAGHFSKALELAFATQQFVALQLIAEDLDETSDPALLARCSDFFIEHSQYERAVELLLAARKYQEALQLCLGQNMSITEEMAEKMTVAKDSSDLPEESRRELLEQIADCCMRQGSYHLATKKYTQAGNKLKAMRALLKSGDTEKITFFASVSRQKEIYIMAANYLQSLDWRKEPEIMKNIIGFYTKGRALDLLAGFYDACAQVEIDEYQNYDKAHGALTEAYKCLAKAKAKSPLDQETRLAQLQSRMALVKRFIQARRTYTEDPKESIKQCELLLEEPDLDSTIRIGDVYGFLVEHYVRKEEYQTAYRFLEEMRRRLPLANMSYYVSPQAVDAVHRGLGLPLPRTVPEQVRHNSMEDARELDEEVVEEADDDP

How did the “solubility in G1/S (log2)” value (HeLa Kyoto [1]) turn out when “MSWLLFLAHRVALAALPCRRGSRGFGMFYAVRRGRKTGVFLTWNECRAQVDRFPAARFKKFATEDEAWAFVRKSASPEVSEGHENQHGQESEAKASKRLREPLDGDGHESAEPYAKHMKPSVEPAPPVSRDTFSYMGDFVVVYTDGCCSSNGRRRPRAGIGVYWGPGHPLNVGIRLPGRQTNQRAEIHAACKAIEQAKTQNINKLVLYTDSMFTINGITNWVQGWKKNGWKTSAGKEVINKEDFVALERLTQGMDIQWMHVPGHSGFIGNEEADRLAREGAKQSED [RNASEH1]” was run?
Its value is 0.274.

And the “solubility change mitosis (log2)” value (HeLa Kyoto [2])?
Its value is -0.0935.

How did the “solubility in G1/S (log2)” value (HeLa Kyoto [1]) turn out when “MCCEKWSRVAEMFLFIEEREDCKILCLCSRAFVEDRKLYNLGLKGYYIRDSGNNSGDQATEEEEGGYSCGTAESHDSKGIGLDESELDSEAELMRSMGLPLQFGRITAHKDFEVSMNTRNKVKIKKKKHQKKYLDEIVQESWRKEYEEDDILASDDPSSIEQYENTRTYELQSKKDTETENPPVENTLSPKLEITEKWEKYWNEYGGGLLWQSWQEKHPGQALSSEPWNFPDTKEEWEQHYSQLYWYYLEQFQYWEAQGWTFDASQSCDTDTYTSKTEADDKNDEKCMKVDLVSFPSSPIMVDNDSSGTSDKDHSEILDGISNIKLNSEEVTQSQLDSCTSHDGHQQLSEVSSKRECPASGQSEPRNGGTNEESNSSGNTNTDPPAEDSQKSSGANTSKDRPHASGTDGDESEEDPPEHKPSKLKRSHELDIDENPASDFDDSGSLLGFKYGSGQKYGGIPNFSHRQVRYLEKNVKLKSKYLDMRRQIKMKNKHIFFTKESEKPFFKKSKILSKVEKFLTWVNKPMDEEASQESSSHDNVHDASTSSDSEEQDMSVKKGDDLLETNNPEPEKCQSVSSAGELETENYERDSLLATVPDEQDCVTQEVPDSRQAETEAEVKKKKNKKKNKKVNGLPPEIAAVPELAKYWAQRYRLFSRFDDGIKLDREGWFSVTPEKIAEHIAGRVSQSFKCDVVVDAFCGVGGNTIQFALTGMRVIAIDIDPVKIALARNNAEVYGIADKIEFICGDFLLLASFLKADVVFLSPPWGGPDYATAETFDIRTMMSPDGFEIFRLSKKITNNIVYFLPRNADIDQVASLAGPGGQVEIEQNFLNNKLKTITAYFGDLIRRPASET [TGS1]” was run?
Its value is 0.102.

What about the “solubility change mitosis (log2)” value (HeLa Kyoto [2]) of the same substance?
The value was 0.247.

Which “solubility in G1/S (log2)” value (HeLa Kyoto [1]) does the source give for “MAPALLLIPAALASFILAFGTGVEFVRFTSLRPLLGGIPESGGPDARQGWLAALQDRSILAPLAWDLGLLLLFVGQHSLMAAERVKAWTSRYFGVLQRSLYVACTALALQLVMRYWEPIPKGPVLWEARAEPWATWVPLLCFVLHVISWLLIFSILLVFDYAELMGLKQVYYHVLGLGEPLALKSPRALRLFSHLRHPVCVELLTVLWVVPTLGTDRLLLAFLLTLYLGLAHGLDQQDLRYLRAQLQRKLHLLSRPQDGEAE [NRM]” here?
The value was -0.275.

What about the “solubility change mitosis (log2)” value (HeLa Kyoto [2]) of the same substance?
Its value is 0.167.

Which results are given for MICALL2?
solubility in G1/S (log2) (HeLa Kyoto [1]): 0.151; solubility change mitosis (log2) (HeLa Kyoto [2]): -0.0133

Which “solubility in G1/S (log2)” value (HeLa Kyoto [1]) does the source give for “MQLRKMQTVKKEQASLDASSNVDKMMVLNSALTEVSEDSTTGEELLLSEGSVGKNKSSACRRKREFIPDEKKDAMYWEKRRKNNEAAKRSREKRRLNDLVLENKLIALGEENATLKAELLSLKLKFGLISSTAYAQEIQKLSNSTAVYFQDYQTSKSNVSSFVDEHEPSMVSSSCISVIKHSPQSSLSDVSEVSSVEHTQESSVQGSCRSPENKFQIIKQEPMELESYTREPRDDRGSYTASIYQNYMGNSFSGYSHSPPLLQVNRSSSNSPRTSETDDGVVGKSSDGEDEQQVPKGPIHSPVELKHVHATVVKVPEVNSSALPHKLRIKAKAMQIKVEAFDNEFEATQKLSSPIDMTSKRHFELEKHSAPSMVHSSLTPFSVQVTNIQDWSLKSEHWHQKELSGKTQNSFKTGVVEMKDSGYKVSDPENLYLKQGIANLSAEVVSLKRLIATQPISASDSG [NFIL3]” here?
The value was 0.00864.

And the “solubility change mitosis (log2)” value (HeLa Kyoto [2])?
The value was 0.104.

Which “solubility in G1/S (log2)” value (HeLa Kyoto [1]) does the source give for “MGLYGQACPSVTSLRMTSELESSLTSMDWLPQLTMRAAIQKSDATQNAHGTGISKKNALLDPNTTLDQEEVQQHKDGKPPYSYASLITFAINSSPKKKMTLSEIYQWICDNFPYYREAGSGWKNSIRHNLSLNKCFLKVPRSKDDPGKGSYWAIDTNPKEDVLPTRPKKRARSVERASTPYSIDSDSLGMECIISGSASPTLAINTVTNKVTLYNTDQDGSDSPRSSLNNSLSDQSLASVNLNSVGSVHSYTPVTSHPESVSQSLTPQQQPQYNLPERDKQLLFSEYNFEDLSASFRSLYKSVFEQSLSQQGLMNIPSESSQQSHTSCTYQHSPSSTVSTHPHSNQSSLSNSHGSGLNTTGSNSVAQVSLSHPQMHTQPSPHPPHRPHGLPQHPQRSPHPAPHPQQHSQLQSPHPQHPSPHQHIQHHPNHQHQTLTHQAPPPPQQVSCNSGVSNDWYATLDMLKESCRIASSVNWSDVDLSQFQGLMESMRQADLKNWSLDQVQFADLCSSLNQFFTQTGLIHSQSNVQQNVCHGAMHPTKPSQHIGTGNLYIDSRQNLPPSVMPPPGYPHIPQALSTPGTTMAGHHRAMNQQHMMPSQAFQMRRSLPPDDIQDDFDWDSIV [FOXJ3]” here?
The value was 0.664.

And the “solubility change mitosis (log2)” value (HeLa Kyoto [2])?
Its value is 0.0825.

What does the source list for IFT140?
solubility in G1/S (log2) (HeLa Kyoto [1]): -0.373; solubility change mitosis (log2) (HeLa Kyoto [2]): 0.0597

“MWCIVLFSLLAWVYAEPTMYGEILSPNYPQAYPSEVEKSWDIEVPEGYGIHLYFTHLDIELSENCAYDSVQIISGDTEEGRLCGQRSSNNPHSPIVEEFQVPYNKLQVIFKSDFSNEERFTGFAAYYVATDINECTDFVDVPCSHFCNNFIGGYFCSCPPEYFLHDDMKNCGVNCSGDVFTALIGEIASPNYPKPYPENSRCEYQIRLEKGFQVVVTLRREDFDVEAADSAGNCLDSLVFVAGDRQFGPYCGHGFPGPLNIETKSNALDIIFQTDLTGQKKGWKLRYHGDPMPCPKEDTPNSVWEPAKAKYVFRDVVQITCLDGFEVVEGRVGATSFYSTCQSNGKWSNSKLKCQPVDCGIPESIENGKVEDPESTLFGSVIRYTCEEPYYYMENGGGGEYHCAGNGSWVNEVLGPELPKCVPVCGVPREPFEEKQRIIGGSDADIKNFPWQVFFDNPWAGGALINEYWVLTAAHVVEGNREPTMYVGSTSVQTSRLAKSKMLTPEHVFIHPGWKLLEVPEGRTNFDNDIALVRLKDPVKMGPTVSPICLPGTSSDYNLMDGDLGLISGWGRTEKRDRAVRLKAARLPVAPLRKCKEVKVEKPTADAEAYVFTPNMICAGGEKGMDSCKGDSGGAFAVQDPNDKTKFYAAGLVSWGPQCGTYGLYTRVKNYVDWIMKTMQENSTPRED [C1S]” was tested. Which “solubility in G1/S (log2)” value (HeLa Kyoto [1]) did it give?
Its value is 0.0236.

And the “solubility change mitosis (log2)” value (HeLa Kyoto [2])?
The value was -0.029.

“MFPVFPCTLLAPPFPVLGLDSRGVGGLMNSFPPPQGHAQNPLQVGAELQSRFFASQGCAQSPFQAAPAPPPTPQAPAAEPLQVDLLPVLAAAQESAAAAAAAAAAAAAVAAAPPAPAAASTVDTAALKQPPAPPPPPPPVSAPAAEAAPPASAATIAAAAATAVVAPTSTVAVAPVASALEKKTKSKGPYICALCAKEFKNGYNLRRHEAIHTGAKAGRVPSGAMKMPTMVPLSLLSVPQLSGAGGGGGEAGAGGGAAAVAAGGVVTTTASGKRIRKNHACEMCGKAFRDVYHLNRHKLSHSDEKPYQCPVCQQRFKRKDRMSYHVRSHDGAVHKPYNCSHCGKSFSRPDHLNSHVRQVHSTERPFKCEKCEAAFATKDRLRAHTVRHEEKVPCHVCGKMLSSAYISDHMKVHSQGPHHVCELCNKGTGEVCPMAAAAAAAAAAAAAAVAAPPTAVGSLSGAEGVPVSSQPLPSQPW [MAZ]” was tested. Which “solubility in G1/S (log2)” value (HeLa Kyoto [1]) did it give?
Its value is 0.0657.

And the “solubility change mitosis (log2)” value (HeLa Kyoto [2])?
Its value is 0.19.

Which results are given for “MAEPVQEELSVLAAIFCRPHEWEVLSRSETDGTVFRIHTKAEGFMDVDIPLELVFHLPVNYPSCLPGISINSEQLTRAQCVTVKENLLEQAESLLSEPMVHELVLWIQQNLRHILSQPETGSGSEKCTFSTSTTMDDGLWITLLHLDHMRAKTKYVKIVEKWASDLRLTGRLMFMGKIILILLQGDRNNLKEYLILQKTSKVDVDSSGKKCKEKMISVLFETKVQTEHKRFLAFEVKEYSALDELQKEFETAGLKKLFSEFVLALVK [RWDD3]”?
solubility in G1/S (log2) (HeLa Kyoto [1]): 0.101; solubility change mitosis (log2) (HeLa Kyoto [2]): -0.0953

“MVDHLANTEINSQRIAAVESCFGASGQPLALPGRVLLGEGVLTKECRKKAKPRIFFLFNDILVYGSIVLNKRKYRSQHIIPLEEVTLELLPETLQAKNRWMIKTAKKSFVVSAASATERQEWISHIEECVRRQLRATGRPPSTEHAAPWIPDKATDICMRCTQTRFSALTRRHHCRKCGFVVCAECSRQRFLLPRLSPKPVRVCSLCYRELAAQQRQEEAEEQGAGSPGQPAHLARPICGASSGDDDDSDEDKEGSRDGDWPSSVEFYASGVAWSAFHS [PLEKHF1]” was tested. Which “solubility in G1/S (log2)” value (HeLa Kyoto [1]) did it give?
The value was 0.0679.

And the “solubility change mitosis (log2)” value (HeLa Kyoto [2])?
The value was 0.00206.

How did the “solubility in G1/S (log2)” value (HeLa Kyoto [1]) turn out when KCT2 was run?
Its value is 0.0557.

And the “solubility change mitosis (log2)” value (HeLa Kyoto [2])?
Its value is -0.29.
